Measurements published in patent US20100150950A1, “HUMAN ANTIBODIES THAT BIND CD70 AND USES THEREOF” (Medarex, Inc., priority 2006, published 2010).

Molecular target: T1, CD70 expressed on the surface of 786-O renal cell carcinoma cells (Homo sapiens, UniProt P32970)
T1 construct: natively expressing CD70+ human cancer cell line 786-0 cells; endogenous in cells; host or cells: 786-O (ATCC CRL-1932), A-498 (HTB-44), ACHN (CRL-1611), Caki-1 (HTB-46), Caki-2 (HTB-47)
T1 sequence (P32970 1-193): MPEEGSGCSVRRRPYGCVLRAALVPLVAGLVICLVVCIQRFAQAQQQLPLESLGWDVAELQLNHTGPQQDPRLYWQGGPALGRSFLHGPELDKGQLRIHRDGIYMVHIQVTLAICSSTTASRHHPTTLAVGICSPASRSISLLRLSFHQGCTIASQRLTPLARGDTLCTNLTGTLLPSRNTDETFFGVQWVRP
Assay: Flow cytometry binding to 786-O cells
Protocol: Anti-CD70 antibodies were tested for binding to renal cell carcinoma cells expressing CD70 on their cell surface by flow cytometry.
The renal cell carcinoma cell lines A-498 (ATCC Accession No. HTB-44), 786-O (ATCC Accession No. CRL-1932), ACHN (ATCC Accession No. CRL-1611), Caki-1 (ATCC Accession No. HTB-46) and Caki-2 (ATCC Accession No. HTB-47) were each tested for antibody binding. Binding of the HuMAb 2H5 anti-CD70 human monoclonal antibody was assessed by incubating 1×10^5 cells with 2H5 at a concentration of 1 μg/ml. The cells were washed and binding was detected with a FITC-labeled anti-human IgG Ab. Flow cytometric analyses were performed using a FACSCalibur flow cytometry (Becton Dickinson, San Jose, Calif.). The anti-CD70 monoclonal antibody 2H5 bound to the renal carcinoma cell lines A-498, 786-O, ACHN, Caki-1 and Caki-2.
The renal cell carcinoma cell lines 786-O and A-498 were tested for binding of the HuMAb anti-CD70 human monoclonal antibodies 2H5, 8B5, 10B4 and 18E7 at different concentrations. Binding of the anti-CD70 human monoclonal antibodies was assessed by incubating 5×10^5 cells with antibody at a starting concentration of 50 μg/ml and serially diluting the antibody at a 1:3 dilution. The cells were washed and binding was detected with a PE-labeled anti-human IgG Ab. Flow cytometric analyses were performed using a FACSCalibur flow cytometry (Becton Dickinson, San Jose, Calif.). The results are shown in FIG. 18A (786-O) and FIG. 18B (A-498). […]
Binding of the HuMAb 2H5 and 69A7 anti-CD70 human monoclonal antibodies to the renal cell carcinoma cell line 786-O was assessed by incubating 2×10^5 cells with either 2H5 or 69A7 at a concentration of 10 μg/ml. […] The cells were washed and binding was detected with a FITC-labeled anti-human IgG Ab. […]
The renal cell carcinoma cell line 786-O was tested for binding of the HuMAb anti-CD70 human monoclonal antibody 69A7 at different concentrations. Binding of the anti-CD70 human monoclonal antibodies was assessed by incubating 5×10^5 cells with antibody at a starting concentration of 10 μg/ml and serially diluting the antibody at a 1:3 dilution. The cells were washed and binding was detected with a PE-labeled anti-human IgG Ab. […]
The Daudi lymphoma cell line and 786-O renal carcinoma cell were further tested for antibody binding. Binding of the HuMAb 69A7 anti-CD70 human monoclonal antibody was assessed by incubating 2×10^5 cells with 69A7 at a concentration of 1 μg/ml. The cells were washed and binding was detected with a FITC-labeled anti-human IgG Ab. […] The anti-CD70 monoclonal antibody 69A7 bound to the Daudi lymphoma cell line and 786-O renal carcinoma cell line, as measured by the mean fluorescent intensity (MFI) of staining. […]

B1: anti-CD70 human monoclonal antibody 69A7 (antibody, V domains shown)
VH: QVQLQESGPGLVKPSETLSLTCTVSGGSVSSDYYYWSWIRQPPGKGLEWLGYIYYSGSTNYNPSLKSRVTISVDTSKNQFSLKLRSVTTADTAVYYCARGDGDYGGNCFDYWGQGTLVTVSS
VL: EIVLTQSPATLSLSPGERATLSCRASQSVSSYLAWYQQKPGQAPRLLIFDASNRATGIPARFSGSGSGTDFTLTISSLEPEDFAVYYCQQRSNWPLTFGGGTKVEIK
notes: Human IgG from hybridoma; also called HuMAb 69A7; FITC-conjugated 69A7
binding to 786-O at different concentrations (MFI) (1:3 serial dilution from 50 μg/ml (69A7: from 10 μg/ml)): concentration dependent
binding to 786-O cells (antibody 1 μg/ml, FITC-labeled anti-human IgG): bound
binding to 786-O cells (antibody 10 μg/ml): bound

B2: 2H5 NF: 2H5 HuMAb lacking fucosyl residues, expressed in CHO cell line Ms704-PF (antibody, V domains shown)
VH: QVQLVESGGGVVQPGRSLRLSCAASGFTFSSYIMHWVRQAPGKGLEWVAVISYDGRNKYYADSVKGRFTISRDNSKNTLYLQMNSLRAEDTAVYYCARDTDGYDFDYWGQGTLVTVSS
VL: EIVLTQSPATLSLSPGERATLSCRASQSVSSYLAWYQQKPGQAPRLLIYDASNRATGIPARFSGSGSGTDFTLTISSLEPEDFAVYYCQQRTNWPLTFGGGTKVEIK
relative binding to 786-0 cells (30 to 0.01 ug/ml, flow cytometry): binds at lower concentration than 1F4 and 1F4 NF
